Common to all, as to test: ITC; 5 mM RRESEI in the syringe, PDZ1-2, PDZ1 or PDZ2 in the cell at nominal 0.13 mM; 25°C; 20 mM Tris-HCl, 150 mM NaCl, pH8.5; MicroCal VP-ITC; PDZ1-2 fitted assuming a single class of sites
Common to all, as to conditions: both partners purified
A general note: ITC needs no label: the signal is the heat of the interaction.

Test [1] has as its target T1, PSD-95 PDZ1-2 dual domain (residues 55-249) (human, UniProt P78352 55-249).
T1 construct: PSD-95 (Disks large homologue 4, SAP-90), human, residues 55-249 of UniProt P78352 [98-292 of P78352-2]; PDZ1, 8-residue linker, PDZ2; cleaved construct 20.8 kDa; ends printed as NGT- and -SNA; Vector pOPINF; SASBDB entries: apo SASDGE5, SASDGF5, SASDGG5; with GSH SASDGH5, SASDGJ5, SASDGK5; also called apo:PDZ1-2; dual PDZ domain; source: E. coli BL21(DE3), purified (Ni-NTA, HRV 3C tag cleavage, …)

For test [2], the target named is T2, PSD-95 PDZ2 domain (residues 154-249) (human, UniProt P78352 154-249).
T2 construct: Gly-Pro left at the N-terminus after HRV 3C cleavage of the tag; PSD-95, human, PDZ2, residues 154-249 of UniProt P78352 [197-292 of P78352-2]; Vector pOPINF; source: E. coli BL21(DE3), purified (Ni-NTA, HRV 3C tag cleavage, negative Ni-NTA, Superdex200 SEC); not shown: His6, N-terminal, cleaved

In test [3] the target is T3, PSD-95 PDZ1 domain (residues 55-152) (human, UniProt P78352 55-152).
T3 construct: Gly-Pro left at the N-terminus after HRV 3C cleavage of the tag; PSD-95, human, PDZ1, residues 55-152 of UniProt P78352 [98-195 of P78352-2]; Vector pOPINF; source: E. coli BL21(DE3), purified (Ni-NTA, HRV 3C tag cleavage, negative Ni-NTA, Superdex200 SEC); not shown: His6, N-terminal, cleaved
T3 sequence (P78352 other isoform, or with tags, fused parts or gaps): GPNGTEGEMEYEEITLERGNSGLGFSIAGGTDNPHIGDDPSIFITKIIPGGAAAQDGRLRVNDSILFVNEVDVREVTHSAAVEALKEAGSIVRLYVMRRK

T1 sequence (P78352 other isoform, or with tags, fused parts or gaps): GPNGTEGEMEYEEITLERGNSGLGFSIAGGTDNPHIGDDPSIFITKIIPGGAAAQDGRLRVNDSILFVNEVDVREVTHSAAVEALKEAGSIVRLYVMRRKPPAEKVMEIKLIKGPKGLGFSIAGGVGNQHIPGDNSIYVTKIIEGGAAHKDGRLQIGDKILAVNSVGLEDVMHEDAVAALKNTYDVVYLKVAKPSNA
T2 sequence (P78352 other isoform, or with tags, fused parts or gaps): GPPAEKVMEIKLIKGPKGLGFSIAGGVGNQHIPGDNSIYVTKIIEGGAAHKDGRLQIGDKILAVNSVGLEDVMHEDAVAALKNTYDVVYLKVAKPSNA

B1: RRESEI peptide (last 6 residues of Kir2.1) (peptide)
peptide: RRESEI
notes: last 6 residues of the inwardly rectifying potassium channel Kir2.1 (C-terminus, type I PDZ motif ESEI); also called RRESEI ligand; ligand peptide; source: synthetic peptide, 98% purity (Peptide Protein Research Ltd.)
For orientation: Kd means the free concentration of one partner at which half of the binding sites on the other are occupied at equilibrium, for simple one-to-one binding. B1: the Kd in test [1] amounted to 90 ± 9 µM; in test [2], 60 ± 2 µM; in test [3] it was 6 ± 6 µM.

These data come from doi:10.1101/775726, “How the dual PDZ domain from Postsynaptic density protein 95 clusters ion channels and receptors” (bioRxiv, 2019).
